Measurements: the DeepSol protein solubility set

assay: soluble on expression in E. coli; label from the status in PepcDB or PDB records

Sequence | soluble on expression in E. coli
MAHHHHHHMYDDVEVRRREEARQHTAASLIQRRWREHAERRSLEQDAAPLRGTGGNGVLLVASDAFGDVVGRRGGETDEALRPLKSDGFDELAQTVQTPEEKRRACVEEYRALLAKRKALLENNLVYQQLLSRHYAEQRRRNGEDEVAQLTTPDAEAAYWALVRQVAEERQRVAARSTALKKDLELQRQRYEPIMEEAATQERNFQQYIQELAASVRFMRSNRPIPTEAIEKYIELEAVQRSAIHASRVRYLQLKNRLLRLRRVAKGGAALSSSAPTATAAATGQDGEESNAANHHMFLIDFEQLKVENTSLNEKIEERSEEVLKLRNKVTNTIHIATHVREKLDCVRAENAELRQHVASTDEELGGARDQLAKSKRRRDAHLRANTRMKERMPLVGSRDLLMDYEKRKAVIYNYRTRLVQLTDRHKELTDSIKKEESTIVSLQHELSHYPK | not soluble
MAHHHHHHMYKLVLIRHGESTWNKENRFTGWVDVDLTEQGNREARQAGQLLKEAGYTFDIAYTSVLKRAIRTLWHVQDQMDLMYVPVVHSWRLNERHYGALSGLNKAETAAKYGDEQVLVWRRSYDTPPPALEPGDERAPYADPRYAKVPREQLPLTECLKDTVARVLPLWNESIAPAVKAGKQVLIAAHGNSLRALIKYLDGISDADIVGLNIPNGVPLVYELDESLTPIRHYYLGDQEAIAKAQAAVAQQGKSAA | soluble
MAHHHHHHMYNILQFVLKAYSIQNEEPSCDVENVKDLLNDQLCYVLYNITNYSSKYQWILILWAPEKNSILIDDIHENKEKKNNFIHIVDKEIYKYNNASKKINKLLYYSFKQNFLDIIFNNYDIPLFEINNFVMLEKCIHDCNNKYYNYTNCPTLLNREKTKPKNDSFDIYNQYNLQKYYLLNIQLRSINNIIILNESSLCHDMKRLLEEPNICLNLFYIDVHNYKIISTHLNIDNIEQVHSIIKENKIFYVIYKVLDTYTFFYICNEICTNTKQKFLYSFFKPYLLEYLKKIKNIPIFLSIELSKTKHLIRFINADLKKNKNKNSN | soluble
MAHHHHHHMYPKNELQVLNILYIIIYSFFVDEEIDNIKDETQEIQAYNYTSLMIPSDVSSENNSDTKHFSVVTISFFILYSENIKQVLNLQESIDIQKIKEKKEKKKKQEVFKDIMCSDIKYEKKIKRKKKKIFENKRSSKKNKNNIRDFINLEKDIIITKTLMYNKKKKLDDIYKYTSKKEKTINNLNKNMIKEAAHMQELLIENFKKTEDLIKVRRGGGKIKKKEKTQRIYIHIYIHIYIHI | not soluble
MAHHHHHHMYTRDVSDRISGISAADLAQRLVEVSARNTARDGALSPSVCQRPLPHCVSALLWDAKCAGAAPPRTALLRGDVVDMTSSVSDATLSCVALSDDVRFRFARSRHRRLTGILSSTAAPLPPRMCRVDVTHFYWMDECAPGLTYDDQSVLSTVLQKRIVQWAVSAFARNPLLRNISLQALEAVFPALLAFSPREREELLKHAAELLGQGTLIWYGQAMIKQFHESAASLALSLLTSSEERCSAALLFALATAQEVMGARRDDAAQALRFLLEVYGVRGVALSPALTTAALLVSRATVPLCTRRCLGAGSRQHHLLQPYLFPLSCAHVETLPWIPHNTHTSSPEHLRELVRRAREAAAAVLATAAPCTATTAQKRHAHEDDVNAFFSANHALEIHRDTLVTHASGDVPSSLPALKAADSGAAARSRLLEAAPKWWEQEAKASNSDTAREETELKLHVKAAAAELREPHGSDHALLAVIHRTRKRQRNREQPTAQTVEAALEGAAIRLKRRAFLQLVDIFALNAHTEDRDGKARQYLEQHHVAEAQIRDFTTLLSSTRKT | not soluble
MAHHHHHHSLNDYTQQLQGKKDYLKTLFAGLDVPEWEVYESPDKHYRMRAEFRIWHEGGEMFYAMFEKGQKASGASMIRCDRFEAASEAVNRLMPELIAAAAQSPELKKRWYAVEFLSTLSGEMLVTMIYHKRLDAEWMQAAQALQQQLDISVIGRSRGQKIVLKQDYVTETLKVGNRDFRYRQIEGSFTQPNAAVCQKMLEWACRTAEGLGSDLLELYCGNGNFTLPLSRYFRQVLATEISKTSVSAAQWNIEANRIGNIKIARLSAEEFTEAYTGKREFKRLKDGGIALTDYAFSTIFVDPPRAGIDEETLKLVSQFDNIIYISCNPETLRANLDTLAETHAVERAALFDQFPFTHHIESGVLLKKKILEG | soluble
MAHHHHHHSLVDVRQSIHSEHAKTLDTQALRREFLIENIFVADEYTMVYSHIDRIIVGGIMPVSHPVEIGGEVGKQLGVSRLLDRRELGVINIGGAGAIIVDGQRHDIGHRDALYIGKGAKELVFVSNEASRPAKFYYNCAPAHTAYPTKKVSPADVAPVTLGDNLTSNRRTINKYFVPDVLETCQLSMGLTELAPGNLWNTMPCHTHERRMEVYLYFNMEEDSCVFHMMGQPQETRHIVMRNEQAVISPSWSIHSGVGTKAYTFIWGMVGENQVFDDMDHVAVQDLREG | soluble
MAHIIRRVSIKDVENFISMLAKIYDESPYMFYTPGEYDPSVTSASKQLEEYITSPHKVIFVAESDEQLVGFAFVNTTPFQRIKHVAKIDLGVKKLYQHRGIGQALLDAIMAWCLNNQIHRIEANVPLNNQPALELFKSADFQIEGVLKDKLFIDGKYYDDYMMAKILN | soluble
MAHLKKRNRLKKNEDFQKVFKHGTSVANRQFVLYTLDQPENDELRVGLSVSKKIGNAVMRNRIKRLIRQAFLEEKERLKEKDYIIIARKPASQLTYEETKKSLQHLFRKSSLYKKSSSK | soluble
MAHQYPSWIFINEKTFITREQLNSLLKTYNIFYENQKNLHILYGETEDGKLIVEGMLDIFWGVKRPIQLKIQDEKPFSSFTSMKSSDVFSSKGMTRWGEFDDLYRISELDRTQIPMSEKRNSQEDYLPYHSNTLKPHAKDEPDSPVLYRTMSEAALVRKRMKPLMMDRKERQKNRASINGHFYNHEIENSPQDFALHIIFATGEQRRLKKTDIPLLQRLLQGPSEKNARIFLMDKDAEEISSDVAQYINFHFSLLESILQRLNEEEKREIQRIVTKFNKEKAIILKCLQNKLVIKTETTV | not soluble
MAIDHYENFPVASLLLPRRLRGAVTDIYRFARAADDIADEGAAEDAERLRQLAAFRAELHRIGAEPGTLAVPASADLAPIFTPLAATIARHQLPITPFFDLLSAFEQDISVKRYESHDDLLDYCRRSANPVGRLMLHLYGAVDEANLRDADAICTGLQLVNFWQDVRIDWRKQRVYLPEEDLRRHGVSRDDLAACRLTPQWRELMAFEVQRTRALLHSGAALPRRLPGRIGLELRLVVQGGLRILQRIEDAGYDVFMNRPELGAKDWAVMLWRAFT | not soluble
MAIDSKPHDDLQLFKTNLHPCGYWPDRWASDLVMDPNDPRLGAIYPQTLAWGFRRSGNLLYRPHCEHCNACVPVRVNVNAFVPNRSQRRCLARNATLVTRIVPAERNAEQLSLYRRYLHQRHPDGGMDGHGAIEFDQFLIGPWGYGRFMEIREPATNGTPGQLLAVAVTDLTHQALSAVYTFYEPNAAARGLGTLAILHQIHWAQREQRPYLYLGYWIKDHFKMDYKRRFQKLEIYDGYRWRPFSTTYPTTHTLLEHHHHHH | soluble
MAIDYSKWDKIELSDDSDVEVHPNVDKKSFIKWKQQSIHEQRFKRNQDIKNLETQVDMYSHLNKRVDRILSNLPESSLTDLPAVTKFLNANFDKMEKSKGENVDPEIATYNEMVEDLFEQLAKDLDKEGKDSKSPSLIRDAILKHRAKIDSVTVEAKKKLDELYKEKNAHISSEDIHTGFDSSFMNKQKGGAKPLEATPSEALSSAAESNILNKLAKSSVPQTFIDFKDDPMKLAKETEEFGKISINEYSKSQKFLLEHLPIISEQQKDALMMKAFEYQLHGDDKMTLQVIHQSELMAYIKEIYDMKKIPYLNPMELSNVINMFFEKVIFNKDKPMGKESFLRSVQEKFLHIQKRSKILQQEEMDESNAEGVETIQLKSLDDSTELEVNLPDFNSKDPEEMKKVKVFKTLIPEKMQEAIMTKNLDNINKVFEDIPIEEAEKLLEVFNDIDIIGIKAILENEKDFQSLKDQYEQDHEDATMENLSLNDRDGGGDNHEEVKHTADTVD | soluble
MAIIKCDVCAYPFSNKQDPRCSKCHPKITPPSKPKNPYALPMKQQLILGPIVGIVVGLMFAACEGNRPGRATTACMLRARAQAIAAGNPNYTHAKEVSPTRAMLVFRKDGRTRNTNFFCDSLVTDREA | not soluble
